{"source": "paper PMC12575849", "about": "“Condensation-dependent interactome of a chromatin remodeler underlies tumor suppressor activities” (Nature Communications, 2025)", "molecular_target": "unmodified nucleosome (recombinant human histone octamer on Widom 601 DNA) (human, UniProt P04908 1-130; O60814 1-126; P68431 1-136; P62805 1-103)", "test": "native gel or EMSA; purified CHD1 titrated against 5 nM IR dye-conjugated nucleosome in EMSA buffer (10 mM HEPES pH 8.0, 75 mM NaCl, 5 mM MgCl2, 10% glycerol, 1 mM DTT, 0.1 mg/ml BSA), 30 min at 30 °C, native PAGE; shifted fraction fitted to a dose-response curve", "conditions": "both partners purified", "data": [{"binder": "recombinant CHD1^ΔNC protein (domain or fragment) EEEFETIERFMDCRIGRKGATGATTTIYAVEADGDPNAGFEKNKEPGEIQYLIKWKGWSHIHNTWETEETLKQQNVRGMKKLDNYKKKDQETKRWLKNASPEDVEYYNCQQELTDDLHKQYQIVERIIAHSNQKSAAGYPDYYCKWQGLPYSECSWEDGALISKKFQACIDEYFSRNQSKTTPFKDCKVLKQRPRFVALKKQPSYIGGHEGLELRDYQLNGLNWLAHSWCKGNSCILADEMGLGKTIQTISFLNYLFHEHQLYGPFLLVVPLSTLTSWQREIQTWASQMNAVVYLGDINSRNMIRTHEWTHHQTKRLKFNILLTTYEILLKDKAFLGGLNWAFIGVDEAHRLKNDDSLLYKTLIDFKSNHRLLITGTPLQNSLKELWSLLHFIMPEKFSSWEDFEEEHGKGREYGYASLHKELEPFLLRRVKKDVEKSLPAKVEQILRMEMSALQKQYYKWILTRNYKALSKGSKGSTSGFLNIMMELKKCCNHCYLIKPPDNNEFYNKQEALQHLIRSSGKLILLDKLLIRLRERGNRVLIFSQMVRMLDILAEYLKYRQFPFQRLDGSIKGELRKQALDHFNAEGSEDFCFLLSTRAGGLGINLASADTVVIFDSDWNPQNDLQAQARAHRIGQKKQVNIYRLVTKGSVEEDILERAKKKMVLDHLVIQRMDTTGKTVLHTGSAPSSSTPFNKEELSAILKFGAEELFKEPEGEEQEPQEMDIDEILKRAETHENEPGPLTVGDELLSQFKVANFSNMDEDDIELEPERNSKNWEEIIPEDQRRRLEEEERQKELEEIYMLPRMRNCAKQISFNGSEGRRSRSRRYSGSDSDSISEGKRPKKRGRPRTIPRENIKGFSDAEIRRFIKSYKKFGGPLERLDAIARDAELVDKSETDLRRLGELVHNGCIKALKDSSSGTERTGGRLGKVKGPTFRISGVQVNAKLVISHEEELIPLHKSIPSDPEERKQYTIPCHTKAAHFDIDWGKEDDSNLLIGIYEYGYGSWEMIKMDPDLSLTHKILPDDPDKKPQAKQLQTRADYLIKLLSRDLAKKEALSGAGSSKRRKARAKKNKA", "values": [{"measurement": "Kd", "result": 6.3, "unit": "nM"}]}]}
